This is an account of results in patent EP2479185A1 (INSTITUT PASTEUR, dated 2012).

Data set [1] concerns the molecule itself. In words: SDS-PAGE and MALDI-TOF MS of purified VAPs (self-assembly).
Data set [2] deals with the molecule itself. In words: heterologous expression in E. coli and electron microscopy of thin sections (self-assembly).

B1: P98 protein of Sulfolobus islandicus rod-shaped virus 2 (SIRV2) (other)
chain: MAITLLEGALYGFFAVTGILVGSFVVGEIVHLYNEKQNNENFAKAVDQMSKSTVIAVESIKDTTTTAINALLNMDTLRDVNALAREKAKDQNPNTQAK
notes: Assayed as assembled VAPs (homomultimeric pyramids) from SIRV2-infected S. islandicus; Also used here for P98 expressed from pSVA1059 in S. acidocaldarius, for which no tag is stated; The number of monomers per VAP was not measured; also called SIRV2-P98; protein 98
As for B1, the binding result in data set [1] was “binds”.

B2: recombinant C-terminal his-tagged P98 expressed in E. coli Rosetta(DE3)pLys from pSVA1051 (other)
chain: MAITLLEGALYGFFAVTGILVGSFVVGEIVHLYNEKQNNENFAKAVDQMSKSTVIAVESIKDTTTTAINALLNMDTLRDVNALAREKAKDQNPNTQAK
notes: Found primarily in the E. coli membrane fraction, where it forms closed VAPs on the inner membrane; also called recombinant P98; E. coli 1051 expressing SIRV2-ORF98; not shown: C-terminal his tag
For the protein B2, the binding result in data set [2] is “binds”.
